Data as given in US20240382610A1 (TALLAC THERAPEUTICS, published 2024).

T1: Human nectin-4 ECD-6His (TNT-175) (human, UniProt Q96NY8 32-349)
T1 construct: the entry holds the extracellular domain with the C-terminal 6His tag
T1 sequence: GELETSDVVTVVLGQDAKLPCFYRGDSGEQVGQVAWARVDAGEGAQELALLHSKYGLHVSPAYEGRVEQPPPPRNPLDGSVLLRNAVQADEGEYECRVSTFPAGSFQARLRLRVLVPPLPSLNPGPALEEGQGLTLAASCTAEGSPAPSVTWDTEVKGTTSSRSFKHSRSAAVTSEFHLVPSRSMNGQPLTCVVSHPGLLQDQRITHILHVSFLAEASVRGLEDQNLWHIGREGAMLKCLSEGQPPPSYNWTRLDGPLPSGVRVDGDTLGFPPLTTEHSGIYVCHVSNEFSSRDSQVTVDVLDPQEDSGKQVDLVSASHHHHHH

T2: Cyno nectin-4 ECD-6His (TNT-255) (cynomolgus, UniProt Q96NY8 32-349 (human entry))
T2 construct: entry includes the 6His tag
T2 chain: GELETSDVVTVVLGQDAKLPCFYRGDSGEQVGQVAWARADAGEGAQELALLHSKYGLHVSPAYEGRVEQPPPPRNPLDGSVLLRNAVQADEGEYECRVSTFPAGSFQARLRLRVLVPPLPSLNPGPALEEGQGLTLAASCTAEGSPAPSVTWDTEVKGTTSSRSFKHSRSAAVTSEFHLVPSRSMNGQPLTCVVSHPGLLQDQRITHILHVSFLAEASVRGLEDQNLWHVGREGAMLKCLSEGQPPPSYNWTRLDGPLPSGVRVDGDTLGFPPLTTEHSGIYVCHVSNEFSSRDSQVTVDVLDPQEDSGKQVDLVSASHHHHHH

T3: Human nectin-4-IgV-6His (TNT-252) (human, UniProt Q96NY8 32-147)
T3 construct: entry includes the 6His tag
T3 sequence: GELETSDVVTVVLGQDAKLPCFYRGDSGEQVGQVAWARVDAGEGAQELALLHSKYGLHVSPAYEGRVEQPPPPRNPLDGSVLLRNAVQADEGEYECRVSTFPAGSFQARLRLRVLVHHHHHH

T4: Mouse nectin-4 ECD-6His (TNT-250) (mouse, UniProt Q8R007 31-347)
T4 construct: entry includes the 6His tag; also called mouse nectin-4-LCD
T4 sequence: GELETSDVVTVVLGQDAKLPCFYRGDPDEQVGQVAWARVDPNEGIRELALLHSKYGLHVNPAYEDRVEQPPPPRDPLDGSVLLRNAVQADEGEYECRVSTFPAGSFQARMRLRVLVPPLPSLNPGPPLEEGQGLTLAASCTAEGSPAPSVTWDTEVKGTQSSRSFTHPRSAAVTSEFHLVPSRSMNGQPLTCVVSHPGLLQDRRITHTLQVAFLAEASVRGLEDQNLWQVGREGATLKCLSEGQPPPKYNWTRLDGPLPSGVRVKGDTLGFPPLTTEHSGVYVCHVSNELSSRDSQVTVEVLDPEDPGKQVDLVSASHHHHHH


Experiments:
[1] = molecular target: T1, Human nectin-4 ECD-6His (TNT-175); assay: SPR Biacore 8K, mAb on protein A
[2] = molecular target: T2, Cyno nectin-4 ECD-6His (TNT-255); assay: SPR Biacore 8K, mAb on protein A
Method: (§1) The running buffer was 10 mM HEPES, pH 7.4, 150 mM NaCl, 3 mM EDTA, 0.05% (v/v) Surfactant P20 (HBS-EP+). […] The nectin-4 analytes were injected in either single-cycle kinetics or multi-cycle kinetics mode at nominal starting concentrations of 300 nM or 900 nM with 3-fold serial dilutions. Association times were monitored for 120 s, and dissociation times were monitored 1800 s at 30 μL/min flow rate. The surfaces were regenerated with 10 mM glycine at pH1.7 or 75 mM phosphoric acid at pH1.6 for two pulses of 15 s at 30 μL/min flow rate.
(§2) The data were processed and analyzed with Biacore 8K Evaluation Software Version 3.0.12.15655 (Cytiva, Global Life Sciences Solutions USA LLC, Marlborough, MA). […] The responses from the nearest buffer blank injection were then subtracted from the reference subtracted data (2-1) to yield double-referenced data. These double-reference data were fit to a simple 1:1 Langmuir binding model with mass transport to determine the apparent association (ka) and dissociation rate constants (kd). The apparent equilibrium dissociation constant or affinity constant was then calculated based on their ratio as (KD=kd/ka).

[3] = molecular target: T3, Human nectin-4-IgV-6His (TNT-252); assay: SPR Biacore 8K, mAb on protein A
Method: as §1, §2

[4] = molecular target: T1, Human nectin-4 ECD-6His (TNT-175); assay: SPR Biacore 8K, mAb on protein A; remark: listed apart in the source
Method: as §1, §2

[5] = molecular target: T4, Mouse nectin-4 ECD-6His (TNT-250); assay: SPR Biacore 8K, mAb on protein A
Method: as §1, §2

[6] = molecular target: T2, Cyno nectin-4 ECD-6His (TNT-255); assay: SPR Biacore 8K
Method: (§3) Further testing of select nectin-4 antibodies to human, mouse and cyno nectin-4. Additional assessment of the nectin-4 antibodies was performed to measure binding to human, mouse, and cynomolgus nectin-4. Biacore 8K (Cytiva, Marlborough, MA) was used to further characterize binding of four of the nectin-4 monoclonal antibodies.
(§4) All experiments were performed at 25° C. temperature and in HBS-EP+ run buffer (10 mM HEPES, pH 7.4, 150 mM NaCl, 3 mM EDTA, 0.05% Tween-20). The antibodies were captured or immobilized on a Biacore chip either through amine-coupling method on a CM5 or captured by ProteinA chip or captured by anti-mouse polyclonal antibody or anti-human polyclonal antibody. […] The data were processed and analyzed in Biacore Insight Evaluation Software using double-reference subtraction of the data and then fitted to a simple Langmuir binding model using global kinetic rate constants for association (Kₐ), dissociation (Kd), and Rₘₐₓ values per sample. Fit quality was determined by inspection of the residuals and of statistical T values and the equilibrium dissociation (or affinity) constant was deduced by the ratio of the kinetic rate constants. KD=Kd/Kₐ.

[7] = molecular target: T3, Human nectin-4-IgV-6His (TNT-252); assay: SPR Biacore 8K
Method: as §3, §4

[8] = molecular target: T1, Human nectin-4 ECD-6His (TNT-175); assay: SPR Biacore 8K
Method: as §3, §4

[9] = molecular target: T4, Mouse nectin-4 ECD-6His (TNT-250); assay: SPR Biacore 8K
Method: as §3, §4

Kd [1] | Kd [2] | Kd [3] | Kd [4] | Kd [5] | Kd [6] | Kd [7] | Kd [8] | Kd [9] | binding result [5] | Binder
1 nM | 4.19 nM | 1.77 nM | 1.37 nM | 5.07 nM | 4.2 nM | 1.8 nM | 1.5 nM | 6 nM | – | TNT-207 (antibody, human IgG1, kappa) heavy: not shown light: DIQMTQSPSSLSASVGDRVTITCRASQGISNYLAWFQQKPGKAPKSLISAASSLQSGVPSRFSGSGSGTDFTLTISSLQPEDFATYYCLQHDSFPITFGGGTKLEIKRTVAAPSVFIFPPSDEQLKSGTASVVCLLNNFYPREAKVQWKVDNALQSGNSQESVTEQDSKDSTYSLSSTLTLSKADYEKHKVYACEVTHQGLSSPVTKSFNRGEC
– | 40.5 nM | 9.88 nM | 8.69 nM | – | 40 nM | 10 nM | 8 nM | – | binds | TNT-212 (antibody, human IgG1, kappa, also called TNT-154) heavy: not shown light: DIQMTQSPSSVSASVGDRVTITCRASQGISGWLAWYQQKPGKAPKFLIYAASTLQSGVPSRFSGSGSGTDFTLTISSLQPEDFATYYCQQANSFPPTFGGGTKVEIKRTVAAPSVFIFPPSDEQLKSGTASVVCLLNNFYPREAKVQWKVDNALQSGNSQESVTEQDSKDSTYSLSSTLTLSKADYEKHKVYACEVTHQGLSSPVTKSFNRGEC
– | 172 nM | 138 nM | 101 nM | 196 nM | 172 nM | 138 nM | 70 nM | 115 nM | – | TNT-203 (antibody, human IgG1, kappa) heavy: not shown light: EIVLTQSPATLSLSPGERATLSCRASQSVSSYLAWYQQKPGQAPRLLIYDASNRATGIPARFSGSGSGTDFTLTISSLQAEDFATYYCQQSYSTRFGGGTKVEIKRTVAAPSVFIFPPSDEQLKSGTASVVCLLNNFYPREAKVQWKVDNALQSGNSQESVTEQDSKDSTYSLSSTLTLSKADYEKHKVYACEVTHQGLSSPVTKSFNRGEC
